Consider one substance from US20150079113A1.

The assay addresses α5 integrin (endogenous) (mouse) (UniProt P11688). Put plainly: cell-based or functional assay.

Sequence of α5 integrin (endogenous) (mouse) (P11688 45-1053): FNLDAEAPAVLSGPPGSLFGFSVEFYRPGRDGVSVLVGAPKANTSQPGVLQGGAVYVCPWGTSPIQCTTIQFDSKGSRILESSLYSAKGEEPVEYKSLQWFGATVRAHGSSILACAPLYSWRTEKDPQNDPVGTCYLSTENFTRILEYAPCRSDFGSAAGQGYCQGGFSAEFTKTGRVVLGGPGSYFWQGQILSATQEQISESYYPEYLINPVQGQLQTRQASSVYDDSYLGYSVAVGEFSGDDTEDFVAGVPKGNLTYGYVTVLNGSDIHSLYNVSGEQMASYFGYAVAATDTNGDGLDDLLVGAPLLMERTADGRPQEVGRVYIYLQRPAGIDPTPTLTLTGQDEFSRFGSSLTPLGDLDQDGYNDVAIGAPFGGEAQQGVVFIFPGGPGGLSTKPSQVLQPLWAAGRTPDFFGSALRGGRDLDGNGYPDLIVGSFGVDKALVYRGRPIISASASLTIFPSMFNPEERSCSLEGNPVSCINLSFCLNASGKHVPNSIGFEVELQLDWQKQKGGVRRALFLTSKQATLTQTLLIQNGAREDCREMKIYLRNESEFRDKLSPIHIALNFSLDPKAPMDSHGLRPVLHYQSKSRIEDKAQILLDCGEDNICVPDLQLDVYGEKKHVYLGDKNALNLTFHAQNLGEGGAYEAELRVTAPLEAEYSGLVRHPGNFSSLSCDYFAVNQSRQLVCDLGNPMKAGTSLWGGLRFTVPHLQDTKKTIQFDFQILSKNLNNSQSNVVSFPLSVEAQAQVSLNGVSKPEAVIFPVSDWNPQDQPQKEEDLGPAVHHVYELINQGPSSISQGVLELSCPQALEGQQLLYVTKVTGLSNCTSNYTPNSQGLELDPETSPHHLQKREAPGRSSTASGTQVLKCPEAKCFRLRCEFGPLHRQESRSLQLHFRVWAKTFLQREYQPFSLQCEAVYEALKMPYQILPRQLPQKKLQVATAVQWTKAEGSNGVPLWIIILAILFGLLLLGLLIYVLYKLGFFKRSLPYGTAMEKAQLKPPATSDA

The substance GFP-Mena (from UniProt Q03173 1-802) gave a t1/2 of fluorescence recovery (FRAP) in nascent, peripheral adhesions, cells plated for 30 minutes on FN of 18.9 s.
